Experimental data reported in the nanobody polyreactivity screen of Harvey et al. (2022).

Test: yeast display, Sf9 membrane polyspecificity reagent, FACS + sequencing; frameworks hold sequencing errors
Method in brief: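 Galactose-induced (36–48 hours) yeast carrying a synthetic nanobody display library were exposed to 10% biotinylated, detergent-solubilized Sf9 membrane reagent at 4 °C for 1 hour. FACS followed streptavidin microbead enrichment, using low and high (top ~1%) gates for expression (anti-HA) and reagent binding (streptavidin). Colony PCR, MiSeq 2 × 250 sequencing and CDR-length filtering followed. Labels for polyreactivity reflect the gate of origin.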

| Sequence | polyreactivity (PSR sort gate) |
| --- | --- |
| QVQLVESGGGLVQAGGSLRLSCAASGRTFSYNAMGWYRQAPGKERELVAAITGRGGSTYYADSVKGRFTISRDNAKHTVYLQMNSLKPEDTAVYYCNAPPGTFQWQGHSDYWGQGTQVTVSS | low polyreactivity |
| QVQLVESGGGLVQAGGSLRLSCAASGFIIKGNVMGWYRQAPGKERELVAAITRRGSTYYADSVKGRFTISRDNAKNTVYLQMNSLKPEDTAVYYCAARPWKAIEKVDGSGGGDYWGQGTQVTVSS | low polyreactivity |
| QVQLVESGGGLVQAGGSLRLSCAASGFILDYNTMGWYRQAPGNERELVAAISSSGDTTYYADSVKGRFTISRDNAKNTVYLQMNSLKPEDTAVYYCAREYGDGYEYWGQGTQVTVSS | low polyreactivity |
| QVQLVESGGGLVQAGGSLRLICAASGRTFTRYAMGWYRQAPGKERELVAAITSGDSTYYADSVKGRFTISRDNAKNTVYLQMNSLKPEDTAVYYCAARTSYGYWYRRRYYYWGQGTQVTVSS | high polyreactivity |
| QVHLVESGGGLVQAGGSLRLSCAASGRIFAYYTMGWNRQAPGKERELVARITKNGGSTYYAESVKGRFTISRDNAKNTVYLQMNSLKPEDTAVYYCNADSGYTGRRTRERYYYWGQGTQVTVSS | high polyreactivity |
| QVQLVESGGGLVQAGGSLRLSFAASGSTFSSNAMGWYRQAPGKERELVAAISVNGGSTNYADSVKGRFTISRDNAKNTVYLQMNSLKPEDTAVYYCDAEPDKVAFYRGDYWGQGTQVTVSS | low polyreactivity |
| QVQLVESGGGLVKAGGSLRLSCAASGRIFNWYVMGWSRQAPGKERELVAAISWGSGNTYYADSVKGRFTISRDNAKNTVYLQMNSLKPEDTAVYYCNKVRSYRSWRGKYDYWGQGTQVTVSS | high polyreactivity |
| QVQLVESGGGLVQAGGSLRLSCAASGNIIWGNAIGWYRQAPGKERELVAAISRRSGSTYYADSVKGRFTISRDIAKNTVYLQMNSLKPEDTAVYYCNTAGRVGTYDYWGQGTQVTVSS | high polyreactivity |
| QVQLVESGGGLVQAGGSLRLSCAASGFTFRVYAMGWNRQAPGKEREFVASITWGGGRPYYADSVKGRFTISRDNAKNTVYLQMNSLKPEDTAVYYCAAYGRLDSYVSYYYWGQGTQVTVSS | high polyreactivity |
| QVQLVESGGGLVQAGGSLRLSCAASGSIFYSYAMGWYRQAPGKERELVASINWSGASTYYADSVKGRFTISRDYAKNTVYLQMNSLKPEDTAVYYCAADWWGYDGRYDYWGQGTQVTVSS | high polyreactivity |
| QVQLVESVGGLDQAGGSLRLSCAASGFTFDINTMGWYRQEPGKERELVAAITYSGGSTYYADSVKGRFTISRDNAKNTVYLQMNSLKPEDTAVYYCATTWYFVASWYVAIYDYWGQGTQVTVSS | low polyreactivity |
| QVQLVESGGGLVQAGGSHRLSCAASGSIFNRYAMGWYRQAPGKERELVAAITAGGSSTYYADSVKGRFTISRDNAKNTVYLQMNSLKPEDTAVYYCNAVWWHPKDYDYWGQGTQVTVSS | low polyreactivity |
| QVQLVESGGGLVQAGGSLRLSCAASGFTIYAYTMGWYRQAPGKERDLVASITSRGGTTYYADSVKGRFTISRDNEKNTVYLQMNSLKPEDTAVYYCNARGYFGWYAMDYCGQGTQVTVSS | high polyreactivity |
| QVQLVESGGGLVQAGGSLRLSCAASGRTFYINAMGWYRQAPGKERELVATISRSGGDTYYADSVKGRFTISRDNAKNTVYLQMNSLKPEDTAVYYCNARQYYYRSGAYASRYLYNYWGQGTQVTVSS | high polyreactivity |
| QVQLVESGGGLVQAGGSLRLSCAASGRTFSRYAMGWYRQAPGKEREFVAAITWSSGGTYYADSVKGRFTISRDNAKNTVYLQMNSLKPEDTAVYYCNYLRSRYYQDYNYWGQGTQVTVSS | high polyreactivity |
| QVQLVESAGGLVQAGVSLRLSCDASGRIFRHNTMGWYRQAPGKERELVAAIRYSGGRTYYADSVKGRFTISRDNAKNTVYLQMNSLKPEDTAVYYCAKDTGQGYYWGQGTQVTVSS | high polyreactivity |
| QVQLVESGGGLVQARGSLRLSCAASGYIFFGNAMGWYRQAPGKERELVAAIRWRGTSTYYADSVKGRFTISRDNAKNTVYLQMKSLKPEDTAVYYCAADVVSSNFYGTFLYDYDYWGQGTQVTVSS | low polyreactivity |
| QVQLVESGGGLVQEGGSLRLSCAASGNTVGINAMGWYRQAPGKERELVASISFTGSSTYYADSVKGRFTISRDNAKNTVYFQMNSLKPEDTAVSYCNRDRITLYEYDYWGQGTQVTVSS | low polyreactivity |
| QVQLEESGGGLVQAGGSLRLSCAASGSIFDVIAMGWYSQAPGNVRVLVAAISDSGGSTYYADSVKGRFTNSRDNAKKTVYLQMNSLKPEDTAVYYCNADWSWYNYYDFDYWGLGTQVTVSS | low polyreactivity |
| QVQLVESGGGLVQAGGSLRLSCAASGRIFVYNVMGWYRQAPGKERELVAAISWGTGSTYADSVKGRFTISRDNAKNTVYLQMHSLKPEDTAVYYCAADSFIPPYDHWGQGTQVTVSS | low polyreactivity |
| QVQLVESGVGLVQAGGSLRLSCAASGSTFYRYAMGWYRQAPGKERELVAAIRGSGGRTYYADSVKGRFTISRDNAKNTVYLQMNSLKPEDTAVYYCAAYRGVSQKGDYWGQGTQVTVSS | high polyreactivity |
| QVQLVESGGGLVQAGGSLRLSCAASGRTFADYAMGWYRQAPGKERELVATIRKSTGTTYYADSVKGRFTISRDNAKNTVYLQMNSLKPEDTAVYYCAAARSRYSRWRVEYWGQGTQVTVSS | high polyreactivity |

| Sequence | polyreactivity (PSR sort gate) |
| --- | --- |
| QVQLVESGGGLVQAGGSLRLSCAASGFTFINYAMGWYRQAPGKERELVAAISSSSDRTYDADSVKGRFTISRDNAKNTVYLQMNSLKPEDTAVYYCAAYAQKRYYWGQGTQVNVSS | high polyreactivity |
| QVQLVESGGGLVQAGGSLRLSCAASGLTFAINTMGWYRPAPGTERELVAAITGSGGSTYYADSVKGRFTISRDNAKNTVYLQMNSLKPEDTAVYDCAAELLYVQGYAMDYWGQGTQVTVSS | low polyreactivity |
| QVQLVESGGGLVQAGGSLRISCAASGRISVVNAMGWYRQAPGKEREMVAAIRRASTNYADSVKGRFTISRDNAKNTVYLQMNSLKPEDTAVYFCAARVYGINIFEYWGQGTQVTVSS | high polyreactivity |
| QVQLVESGGGLVQAGGSLRLSCAASGRIFSYYTMGWYRQAPGKERELVAAITSGDSTNYADSVKGRFTISRDNAKNTVYLQMNSLKPEDTAVYYCNARYSWWRSRVGSSHGPDGYWGQGTQVTVSS | high polyreactivity |
| QVQLVESGGGLVQAGGSLRLSCAASGSTFVDYAMGWYRQAPGKEREFVAAISFSGDSTYYADSVKGRFTISRDNAKNSVYLQLNSLKPEDTAVYYCAASRPYYNRQYYRSWRDDYWGQGTQVTVSS | low polyreactivity |
| QVQLVESGGGLVQAGGILRLSCAASGRIFRFYTMGWYRQAPGKERELVAAITSSGRTYYADSVKGRVTISRDNAKNTVYLQMNSLKPEDTAVYYCNKYFRPRTILASPGEYWGQGTQVTVSS | high polyreactivity |
| QVQLVESGGGLVQAGGSLRLSCAASGFIFFQYAMGWYRPAPGKERELVAAISGSGVTTYYADSVKGRFTISRDNAKNTVYLQMNSLKPDDTAVYYCNAGSVSDRQMDYWGQGTQVTVSS | low polyreactivity |
| KVQLVESGGGLVQPGGSLRLSCASSGQTFTTNEMGWNRQAHGKERDLLAAISRRGSRTYYADSVKGRFTISRDNAKNSVFLQMNSLKPEDTAVYYCNALTGSFKTYSFDYWGQGTQVTVSS | high polyreactivity |
| QVQLVESAGGLVQAGGSLRLSCAASGSTFDYYAMGWYRQAPGKERELVASITWGDGSTYYADSVKGRFTISRDNAKNTVYLQMNSLKPEDTAVYYCNADDTQLESYAPGHGYDYWGQGTQVTVSS | low polyreactivity |
| QVQIVESGGGLVQAGGSLRLSCAASGFTLHRNAMGWYRQAPGKERELVANISWTGGSTYYADSVKGRFTISRDNAKNTVYLQMNSLKPEDTAVYYCAARGHWSIYGYYYLGATAFGYWGQGTQVTVSS | low polyreactivity |
| QVQLVESGGGLVQAGGSLRLSCAASGNTFDIYAMGWYIQAPGKERELVAAISRRGGSTYYAESVKGRFTISRDNAKNTVYLQLNSLKPEDTAVYYCNTVYATRYDYWGQGTQVTVSS | high polyreactivity |
| QVQLVESGGGLVQAGGSLRLSCAGSGRIFQRNDMGWYRQAPGKARELVAGITGCGGRTYYADSVKGRFTISRDNEKNTVYLQMNSLKPEDTAVYYCAAALWSSRGRVLSRRDYWGQGTQVTVSS | high polyreactivity |
| QVQLVESGGGLVQAGGSLRLSCAASGIIFSWYAMGWYRQAPGKERELVASITASGGSTYYADSVKGRFTISRDNAKNTVYLQMNSLKPEDTAVYYCAVRYGHRSFASVYVEYEYWGQGTQVTVSS | low polyreactivity |
| QVQLVESGGGLVQAGGSLRLSCAASGITLYFYAMGWYRQAPWKERELVAAISRGGRTYYADSVKGRFTISRDNAKNTVYLQMNSLKPEDTAVYYCAARYTSEYSAFDYWGQGTQVTVSS | low polyreactivity |
| QVQLEESGGGLFQAGGSLRLSCAASGRIFYGYAMGWSRQAPGKEMELVAAISSSGGSTYYADSVKGRFTISRDNAKNTVYLQRNSLKPEDTAVYYCNAKRYRPGYWYDYWGQGTQVTVSS | high polyreactivity |
| QVQLVESGGGLVQAGGSLRLSCAASGRTYSQNAMGWYRQSPGKERELVAAIRRGGSTNYADSVKGRFTISRDNAKNTVYLQMNSLKPEDSAVYDCAADLRRNGWGFDYWGLGTQVTVSS | high polyreactivity |
| QVQLVESRGGLVQAGGSLRLSCAASGSTFRRYAMGWYRQAPGKERELVAAITTRGGSTYYADSVKGRFTISRDNAKNTVYLQMNSLKPEDTAVYYCARDYSTYLRTAGDYWGQGTQVTVSS | low polyreactivity |
| QVQLVESGGGLVQAGGSLRLSCAASGRIFRYYAMGWYRQAPGKERELVAAISRRGSSTYYADSVKGRFTISRDNAKNTVYLQMNSLKPEDTAVYYCSAKRQVYQSESTYEYWGQGTQVTVSS | high polyreactivity |
| HVQLVESGGGLVQAGGSLRLSCAASGRISGANMGWDRQAPGKERELGAAISNGGSTNYADSVKGRFTISRANAKNTVYLQMNSLKPEDTAVYYCAKLGPRSYSSYRYDYWGQGTQVTVSS | high polyreactivity |
| QEQLQESGGGMVQVGGTLRLSCAATGTIFIYGFLGWNRQAPGKERELVASINLGGITNYADSVKGRFTISRDNAKNTVYLQMISLKPEDTAVYYCAAYLVTGQNYGYWGQGTQVTVSS | low polyreactivity |
| QVQLVESGGGLVQAGGSLRLSCAASGRIFRGYAMGWYRQAPGKERELVAAISQSGSSTYYADSVKGRFTISRDNAKNTVYLQMNSLKPEDTAVYYCAVKYLKHFGYWGQGTQVTVSS | high polyreactivity |
